Data as given in patent US20040230039A1 (YEDA RESEARCH AND DEVELOPMENT, published 2004).
Substitutions are numbered along the chain they refer to. In names and notes the source's numbering stands.

T1: Acetyl-Asp-Glu-Val-Asp-a-(4-Methyl-Coumaryl-7-Amide)
T1 sequence: DEVD

T2: Acetyl-Tyr-Val-Ala-Asp-AMC
T2 sequence: YVAD

T3: MORT-1 (FADD), human, full-length (human), Q13158
T3 chain: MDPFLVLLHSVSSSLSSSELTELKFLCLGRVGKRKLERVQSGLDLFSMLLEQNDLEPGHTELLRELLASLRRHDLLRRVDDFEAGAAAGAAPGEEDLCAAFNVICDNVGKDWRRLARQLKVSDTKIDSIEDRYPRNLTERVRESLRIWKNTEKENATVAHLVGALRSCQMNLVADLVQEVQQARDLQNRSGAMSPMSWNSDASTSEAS

T4: TRADD (human, UniProt Q15628 1-312, limits assumed)
T4 construct: Gal4 hybrid in yeast
T4 sequence (looked up): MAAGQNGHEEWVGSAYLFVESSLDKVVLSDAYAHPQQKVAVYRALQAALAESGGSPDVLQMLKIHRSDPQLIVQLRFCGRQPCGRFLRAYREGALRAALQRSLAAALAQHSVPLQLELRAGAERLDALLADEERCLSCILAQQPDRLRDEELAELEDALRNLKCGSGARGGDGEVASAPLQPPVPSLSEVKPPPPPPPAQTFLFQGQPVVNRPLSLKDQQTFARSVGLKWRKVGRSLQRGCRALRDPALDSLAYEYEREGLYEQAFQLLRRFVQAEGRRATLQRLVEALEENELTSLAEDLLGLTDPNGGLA

T5: FLAG-MORT-1 (UniProt Q13158 1-208)
T5 construct: Expressed and 35S-labeled in HeLa cells; yielded proteins of about 27, 28, 32 and 34 kD; also called MORT-1-FLAG fusion protein; not shown: FLAG octapeptide (Eastman Kodak), N-terminal
T5 sequence (looked up): T3 chain

B1: MORT-1 (FADD), human, full-length (other, UniProt Q13158 1-208, looked up)
chain: T3 chain
notes: Gal4 hybrid in yeast; also expressed in mammalian cells; also called HF1
B2: MORT-1 fragment residues 130-245 (MORT-1 DD) (other, human, UniProt Q13158 82-197, looked up)
chain: FEAGAAAGAAPGEEDLCAAFNVICDNVGKDWRRLARQLKVSDTKIDSIEDRYPRNLTERVRESLRIWKNTEKENATVAHLVGALRSCQMNLVADLVQEVQQARDLQNRSGAMSPMS
notes: Gal4 hybrid in yeast; expressed in HeLa cells for the cytotoxicity test; also called MORT 'tail'
B3: mouse Fas-IC (receptor, UniProt P25446 187-327, looked up)
chain: RKYRKRKCWKRRQDDPESRTSSRETIPMNASNLSLSKYIPRIAEDMTIQEAKKFARENNIKEGKIDEIMHDSIQDTAEQKVQLLLCWYQSHGKSDAYQDLIKGLKKAECRRTLDKFQDMVQKDLGKSTPDTGNENEGQCLE
notes: domain: intracellular domain
B4: mouse Fas-IC I225N (receptor, UniProt P25446 187-327, looked up)
chain: B3 chain with I60N
notes: domain: intracellular domain; The text says 'Ile to Leu' but labels the mutant I225N; Position as printed; may count on the mature receptor; also called lprcg mutation
B5: mouse Fas-IC I225A (receptor, UniProt P25446 187-327, looked up)
chain: B3 chain with I60A
notes: domain: intracellular domain; Position as printed; may count on the mature receptor
B6: GST-mFas-IC (receptor, mouse, UniProt P25446 187-327, looked up)
chain: B3 chain
notes: domain: intracellular domain; Produced in E. coli, attached to glutathione beads; also called GST fusion with the mouse Fas-IC; not shown: glutathione S-transferase (GST) fusion partner
B7: MACHα1 (C360S) (enzyme)
chain: MDFSRNLYDIGEQLDSEDLASLKFLSLDYIPQRKQEPIKDALMLFQRLQEKRMLEESNLSFLKELLFRINRLDLLITYLNTRKEEMERELQTPGRAQISAYRVMLYQISEEVSRSELRSFKFLLQEEISKCKLDDDMNLLDIFIEMEKRVILGEGKLDILKRVCAQINKSLLKIINDYEEFSKERSSSLEGSPDEFSNGEELCGVMTISDSPREQDSESQTLDKVYQMKSKPRGYCLIINNHNFAKAREKVPKLHSIRDRNGTHLDAGALTTTFEELHFEIKPHDDCTVEQIYEILKIYQLMDHSNMDCFICCILSHGDKGIIYGTDGQEAPIYELTSQFTGLKCPSLAGKPKVFFIQASQGDNYQKGIPVETDSEEQPYLEMDLSSPQTRYIPDEADFLLGMATVNNCVSYRNPAEGTWYIQSLCQSLRERCPRGDDILTILTEVNYEVSNKDDKKNMGKQMPQPTFTLRKKLVFPSD
notes: Gal4 hybrid in yeast; also called MACHα(C360S)
B8: human p55-IC (intracellular domain of human p55 TNF receptor, residues 206-426) (receptor, UniProt P19438 235-455, looked up)
chain: RYQRWKSKLYSIVCGKSTPEKEGELEGTTTKPLAPNPSFSPTPGFTPTLGFSPVPSSTFTSSSTYTPGDCPNFAAPRREVAPPYQGADPILATALASDPIPNPLQKWEDSAHKPQSLDTDDPATLYAVVENVPPLRWKEFVRRLGLSDHEIDRLELQNGRCLREAQYSMLATWRRRTPRREATLELLGRVLRDMDLLGCLEDIEEALCGPAALPPAPSLLR
notes: range 206-426; Gal4 hybrid in yeast; Numbering as printed; may count on the mature receptor; also called 206-426 p55; intracellular domain of human p55-R (CD120a)
B9: GST-huFas-IC (receptor, human, UniProt P25445 191-335, looked up)
chain: KRKEVQKTCRKHRKENQGSHESPTLNPETVAINLSDVDLSKYITTIAGVMTLSQVKGFVRKNGVNEAKIDEIKNDNVQDTAEQKVQLLRNWHQLHGKKEAYDTLIKDLKKANLCTLAEKIQTIILKDITSDSENSNFRNEIQSLV
notes: domain: intracellular domain; Produced in E. coli, attached to glutathione beads; also called GST fusion with the human Fas-IC; GST-Fas-IC; not shown: glutathione S-transferase (GST) fusion partner
B10: MACHβ1 (ORF-B of MACH) (other, human, UniProt Q14790-5 1-235, looked up)
chain: MDFSRNLYDIGEQLDSEDLASLKFLSLDYIPQRKQEPIKDALMLFQRLQEKRMLEESNLSFLKELLFRINRLDLLITYLNTRKEEMERELQTPGRAQISAYRVMLYQISEEVSRSELRSFKFLLQEEISKCKLDDDMNLLDIFIEMEKRVILGEGKLDILKRVCAQINKSLLKIINDYEEFSKERSSSLEGSPDEFSNDFGQSLPNEKQTSGILSDHQQSQFCKSTGESAQTSQH
notes: Gal4 hybrid in yeast; also expressed in mammalian cells (34 kDa); also called MACH B; MACH ORF-B

Tests used:
[1] = test system: T1, Acetyl-Asp-Glu-Val-Asp-a-(4-Methyl-Coumaryl-7-Amide)
[2] = test system: T2, Acetyl-Tyr-Val-Ala-Asp-AMC
[3] = target: T3, MORT-1 (FADD), human, full-length …; test: yeast two-hybrid beta-galactosidase filter assay; activation-domain hybrid against DNA-binding-domain hybrid (row); +++ = strong color within 30 min; conditions: remark: other sources report otherwise
[4] = target: B8; test: yeast two-hybrid beta-galactosidase test
Method: (§1) The interaction of the proteins encoded by the Gal4 DNA binding domain and activation-domain constructs (pGBT9 and PGAD-GH) within transfected SFY526 yeasts was assessed by β-galactosidase expression filter assay. […] The intracellular domains of human p55 TNF receptor (p55-IC residues 206-426), human CD40 (CD40-IC, residues 216-277) and human p75 TNF receptor (p75-IC, residues 287-461) as well as lamin, cyclin D and “empty” Gal4 (pGBT9) vectors served as negative controls in the form of DNA-binding domain constructs. SNF-1 and SNF4 served as positive controls in the form of DNA-binding-domain (SNF1) and activation-domain (SNF4) constructs. “Empty” Gal4 vectors (pGAD-GH) also served as negative controls in the form of activation domain constructs. The symbols “++” and “+” used in the presentation of the results of the above analysis denote the development of strong color within 30 and 90 min of the assay, respectively; and “−” denotes no development of color within 24 h.

TRADD = target: T4, TRADD; test: yeast two-hybrid screen of a human B cell library with MORT-1 as bait
[5] = target: B1; test: yeast two-hybrid beta-galactosidase test
Method: as §1

FLAG-MORT-1 = target: T5, FLAG-MORT-1; test: in vitro binding of 35S-labeled FLAG-MORT-1 from HeLa extracts to GST fusion on glutathione beads, SDS-PAGE and autoradiography
Method: Glutathione S-transferase (GST) fusions with the wild type or a mutated Fas-IC were produced and adsorbed to glutathione-agarose beads; see Boldin et al., 1995; Current Protocols in Molecular Biology, 1994; Frangioni and Neel, 1993). […] The extracts were prepared in a buffer containing 50 mM Tris-HCl, pH 7.5, 150 mM NaCl, 0.1% NP-40, 1 mM dithiotreitol, 1 mM EDTA, 1 mM phenylmethylsulfonyl fluoride, 20 μg/ml Aprotonin, 20 μg/ml Leupeptin, 10 mM sodium fluoride and 0.1 mM sodium vanadate (1 ml per 5×10⁵ cells).

yeast two-hybrid test = target: the molecule itself; test: yeast two-hybrid test
From the text: (§2) Except where otherwise indicated, all experimental procedures for the findings presented are as described above (see also Boldin et al., 1995).

MACHα1 (C360S) [6] = target: B7; test: yeast two-hybrid beta-galactosidase filter assay
Method: (§3) Their interaction was assessed by a β-galactosidase expression filter assay as described in Boldin et al., (1995b). The results are presented in terms of the time required for the development of strong color. […] Except where otherwise indicated, all experimental procedures for the findings presented are as described above (see also Boldin et al., 1995).

MACHα1 [7] = target: T6, MACHα1 (human, UniProt Q14790 1-479); test: yeast two-hybrid beta-galactosidase filter assay
T6 construct: also called CASP-8α1
Method: as §3

MACHβ1 (ORF-B of MACH) = target: B10; test: yeast two-hybrid beta-galactosidase filter assay
Method: as §3

[8] = target: the molecule itself; test: yeast two-hybrid beta-galactosidase filter assay; activation-domain hybrid against DNA-binding-domain hybrid (row); + = strong color within 90 min
Method: The DNA-binding domain constructs were prepared in pGBT9 vectors and the activation domain constructs were prepared in pGAD-GM vectors. […] In the assay, the development of color was determined, where the greater the color development, the greater the interaction between the constructs encoded by the DNA-binding domain and activation domain.

MACHα1 (C360S) [9] = target: B7; test: yeast two-hybrid test
From the text: as §2

MACHα1 [10] = target: T6, MACHα1; test: yeast two-hybrid test
From the text: as §2

Molecule: GST fusion of MACHα1 Ser217 till Asp374
- cleavage of fluorogenic peptide substrate (AMC release) by bacterial lysates [1]: Nor did cleavage occur

Molecule: GST-fused MACH CED3/ICE-homology region with Cys360 replaced by Ser
- cleavage of fluorogenic peptide substrate (AMC release) by bacterial lysates [1]: No cleavage was observed

Molecule: GST fusion of the full-length MACHα1
- cleavage of fluorogenic peptide substrate (AMC release) by bacterial lysates [1]: did not cleave Ac-DEVD-AMC

Molecule: GST fusion of the CED3/ICE homology region of MACHα1 (Ser217 through the C-terminus)
- cleavage of fluorogenic peptide substrate (AMC release) by bacterial lysates [2]: They had no measurable proteolytic activity, though, against the IL-1β-precursor sequence-derived fluorogenic substrate
- cleavage of fluorogenic peptide substrate (AMC release) by bacterial lysates [1]: cleaved effectively the PARP sequence-derived fluorogenic substrate

Molecule: GST fusion of MACHα1 Asp374 through the C-terminus
- cleavage of fluorogenic peptide substrate (AMC release) by bacterial lysates [1]: Nor did cleavage occur

Molecule: B1
- time to development of strong color (beta-galactosidase filter assay, yeast two-hybrid) [3]: < 30 min
- binding result [4]: no binding
- binding result (TRADD): binds

Molecule: B2
- binding result [5]: no binding

Molecule: B3
- binding result [5]: binds

Molecule: B4
- binding result [5]: no binding

Molecule: B5
- binding result [5]: no binding

Molecule: B6
- binding result (FLAG-MORT-1): binds

Molecule: B7
- binding result (yeast two-hybrid test): binds

Molecule: B8
- binding result (MACHα1 (C360S) [6]): no binding
- binding result (MACHα1 [7]): no binding
- binding result (MACHβ1 (ORF-B of MACH)): no binding

Molecule: B9
- binding result (FLAG-MORT-1): binds

Molecule: B10
- binding result [8]: binds
- binding result (MACHα1 (C360S) [9]): binds
- binding result (MACHα1 [10]): binds
